Source: US20150183871A1 (AbbVie / Abbott, published 2015)
Where a chain is given by its changes, count along the chain named.

Legend:
[1] = biological target: T1, recombinant purified human RGM A (human, UniProt Q96B86 48-424, limits assumed); experiment: direct ELISA, plate coated with hRGM A at 2 µg/ml, biotinylated antibody in 1:5 dilution steps, streptavidin-HRP, OD 450 nm
T1 construct: Bought recombinant protein (R&D Systems); also called hRGM A; hRGMA
T1 sequence: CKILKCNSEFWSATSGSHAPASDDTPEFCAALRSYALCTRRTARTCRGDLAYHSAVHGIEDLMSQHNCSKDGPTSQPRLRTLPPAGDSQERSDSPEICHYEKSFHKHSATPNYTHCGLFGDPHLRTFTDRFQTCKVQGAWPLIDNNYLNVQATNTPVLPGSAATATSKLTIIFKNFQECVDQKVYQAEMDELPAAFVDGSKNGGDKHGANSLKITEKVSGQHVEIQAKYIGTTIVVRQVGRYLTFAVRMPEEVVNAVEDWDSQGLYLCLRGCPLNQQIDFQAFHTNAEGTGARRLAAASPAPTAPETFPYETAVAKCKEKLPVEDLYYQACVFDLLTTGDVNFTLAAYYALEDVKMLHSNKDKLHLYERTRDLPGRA
Description: (i) Direct binding ELISA plates were coated with hRGM A (R&D) at a concentration of 2 μg/ml in Carbonate buffer. The wells were then blocked with 2% Blocking solution (Bio-Rad) for 1 hour at room temperature. Biotinylated antibodies were serially diluted with a 1:5 dilution factor in 0.1% BSNPBS down the plate and incubated for 1 hour at room temperature. The detection reagent was a 1:10,000 dilution of streptavidin-HRP in 0.1% BSNPBS. Detection was done with a TMB reagent, which was stopped with 2N H₂SO₄ and OD was read at 450 nm.
(§1) FAGS was carried out as described in section (ii).

[2] = biological target: T2, rat RGM A overexpressed on cells (BAF3 cells) (rat); experiment: FACS on BAF3-ratRGMA stable cell line, anti-rat IgG PE
T2 construct: also called BAF3 cells overexpressing ratRGM A
T2 chain: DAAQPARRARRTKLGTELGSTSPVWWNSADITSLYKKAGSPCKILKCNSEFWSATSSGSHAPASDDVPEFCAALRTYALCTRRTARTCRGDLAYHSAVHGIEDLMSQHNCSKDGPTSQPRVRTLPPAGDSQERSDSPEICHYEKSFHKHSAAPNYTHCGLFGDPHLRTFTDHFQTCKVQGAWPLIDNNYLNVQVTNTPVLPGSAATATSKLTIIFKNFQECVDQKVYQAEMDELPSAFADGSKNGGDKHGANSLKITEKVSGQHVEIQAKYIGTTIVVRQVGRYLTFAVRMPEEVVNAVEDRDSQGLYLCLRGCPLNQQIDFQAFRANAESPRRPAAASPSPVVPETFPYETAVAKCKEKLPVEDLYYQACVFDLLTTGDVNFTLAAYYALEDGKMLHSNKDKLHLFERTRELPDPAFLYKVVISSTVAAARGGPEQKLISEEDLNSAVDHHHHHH
Description: (ii) FACS analysis. Stable transfectants of HEK293 cells overexpressing hRGM A or BAF3 cells overexpressing ratRGM A were subjected to staining with unlabelled 5F9 or 8D1 MABs for more than 15 minutes at 4° in 0.1% BSNPBS buffer. Detection was carried out with a mouse anti-rat IgG PE antibody.
as §1

[3] = biological target: T3, fc-coupled full length human RGM A (47-422) (human); experiment: competition ELISA: fc-conjugated full length hRGM A (0.5 µg/ml) binding to coated BMP-2
T3 construct: the legends call the protein fc-coupled full length hRGM A fragment (47-422, counted on hRGM A); also called full length fc-conjugated hRGM A; Human RGM A-fc
Description: After the incubation, unbound BMP-2 was removed in 3 separate wash steps with PBS containing 0.02% Tween 20. Blocking of the BMP-2 coated plates was done by adding 2001-JI per well of a 3% Bovine serum albumin (BSA), PBS, Tween 20(0.02%) blocking solution. After incubation for 1 h at 37° C., the blocking solution was removed and RGM A fragments or full length protein, conjugated with a human fc tag, with or without antibody, was added. In some experiments antibodies were preincubated with the fc-conjugated hRGM A proteins for 1 h at room temperature. The BMP-2 coated plates were incubated with hRGM A with or without antibodies for 1 hat 37° C. After 3 wash steps with PBS-Tween 20 (0.02%), plates were incubated with a Biotin-labeled anti-human fc antibody (1 mg/ml, diluted 1:200 in PBS containing 0.6% BSA, 0.02% Tween 20), Jackson ImmunoResearch catalog no: 709-065-149, for 1 h at 37° C. Unbound antibody was removed by 3 wash steps with PBS-Tween 20 (0.02%). […] Unbound Peroxidase-complex was removed in 3 subsequent wash steps (PBS-Tween 20 (0.02%) before adding the Peroxidase substrate (Immuno Pure TMB, Pierce#34021). The substrate reaction was stopped 1-30 min after its addition to the wells by 2.5 M H2SO4. Plates were analysed (OD determination) at a wave length of 450 nm using an Anthos photometer. […]

recombinant rat RGM A = biological target: T4, recombinant rat RGM A (rat); experiment: direct ELISA on rRatRGMA
T4 construct: also called rRatRGMA
T4 chain: T2 chain

[4] = biological target: T5, fc-coupled human RGM A light chain, fragment 0 (47-168) (human); experiment: direct ELISA on hRGMA 47-168/HuIgGFc
T5 construct: also called hRGM A light chain - fc; hRGMA 47-168/HuIgGFc

[5] = biological target: T1, recombinant purified human RGM A; experiment: SPR (Biacore 3000), antibody captured by anti-human IgG Fc, hRGMA in solution, 25 °C
Description: The BIACORE assay (Biacore, Inc, Piscataway, N.J.) determines the affinity of antibodies with kinetic measurements of on-, off-rate constants. Binding of antibodies to recombinant purified human RGMA was determined by surface plasmon resonance-based measurements with a Biacore® 3000 instrument (Biacore® AB, Uppsala, Sweden) using running HBS-EP (10 mM HEPES [pH 7.4], 150 mM NaCl, 3 mM EDTA, and 0.005% surfactant P20) at 25° C. All chemicals were obtained from Biacore® AB (Uppsala, Sweden). Approximately 5000 RU of goat anti-human IgG, (Fey), fragment specific polyclonal antibody (Pierce Biotechnology Inc, Rockford, Ill.) diluted in 10 mM sodium acetate (pH 4.5) was directly immobilized across a CM5 research grade biosensor chip using a standard amine coupling kit according to manufacturers instructions and procedures at 25 μg/ml. Unreacted moieties on the biosensor surface were blocked with ethanolamine. Modified carboxymethyl dextran surface in flowcell 2 and 4 was used as a reaction surface. Unmodified carboxymethyl dextran without goat anti-human IgG in flow cell 1 and 3 was used as the reference surface. Purified antibodies were diluted in HEPES-buffered saline for capture across goat anti-humanIgG specific reaction surfaces. Human antibodies to be captured as a ligand (25 μg/ml) were injected over reaction matrices at a flow rate of 5 μl/min. The association and dissociation rate constants, kₒₙ (unit M⁻¹s⁻¹) and koff (unit s⁻¹) were determined under a continuous flow rate of 25 μl/min. Rate constants were derived by making kinetic binding measurements at […] different antigen concentrations ranging from 0.39-50 nM. For kinetic analysis, rate equations derived from the 1:1 Langmuir binding model were fitted simultaneously to association and dissociation phases of all eight injections (using global fit analysis) with the use of Biaevaluation 4.0.1 software. The equilibrium dissociation constant (unit M) of the reaction between humanized antibodies and recombinant purified human RGMA was then calculated from the kinetic rate constants by the following formula: KD=koff/kₒₙ.

[6] = biological target: T1, recombinant purified human RGM A; experiment: competition ELISA on coated hRGMA; competitor biotinylated chimeric 5F9
Description: ELISA plates (Costar 3369) were coated overnight at 4° c. with 50 μl/well of 0.25 μg/ml hRGMA in 0.2 M sodium carbonate-bicarbonate buffer, pH 9.4, washed with Wash Buffer (PBS containing 0.1% Tween 20), and blocked for 1 hr at room temperature with 200 μl/well of 2% nonfat dry milk in PBS. After washing with Wash Buffer, a mixture of a biotinylated chimeric 5F9 (0.1 IJg/ml final concentration) and unlabelled competitor test antibody starting at 50 IJg/ml final concentration and serially diluted 5-fold) in 50 μl/well of ELISA buffer was added in duplicate. After incubating the plates for 1 hr at room temperature, and washing with Wash Buffer, bound antibodies were detected using 100 μl/well of 1:10,000 dilution of HRP-conjugated streptavidin (Fitzgerald) in ELISA buffer. After incubating for 1 hr at room temperature, and washing with Wash Buffer, color development was performed by adding 100 μl/well of TMB Buffer (Zymed). After incubating for 15 min at room temperature, color development was stopped by adding 50 μl/well of 1 N hydrochloric acid. Absorbance was read at 490 nm.

T3 sequence (chain, as listed by the source): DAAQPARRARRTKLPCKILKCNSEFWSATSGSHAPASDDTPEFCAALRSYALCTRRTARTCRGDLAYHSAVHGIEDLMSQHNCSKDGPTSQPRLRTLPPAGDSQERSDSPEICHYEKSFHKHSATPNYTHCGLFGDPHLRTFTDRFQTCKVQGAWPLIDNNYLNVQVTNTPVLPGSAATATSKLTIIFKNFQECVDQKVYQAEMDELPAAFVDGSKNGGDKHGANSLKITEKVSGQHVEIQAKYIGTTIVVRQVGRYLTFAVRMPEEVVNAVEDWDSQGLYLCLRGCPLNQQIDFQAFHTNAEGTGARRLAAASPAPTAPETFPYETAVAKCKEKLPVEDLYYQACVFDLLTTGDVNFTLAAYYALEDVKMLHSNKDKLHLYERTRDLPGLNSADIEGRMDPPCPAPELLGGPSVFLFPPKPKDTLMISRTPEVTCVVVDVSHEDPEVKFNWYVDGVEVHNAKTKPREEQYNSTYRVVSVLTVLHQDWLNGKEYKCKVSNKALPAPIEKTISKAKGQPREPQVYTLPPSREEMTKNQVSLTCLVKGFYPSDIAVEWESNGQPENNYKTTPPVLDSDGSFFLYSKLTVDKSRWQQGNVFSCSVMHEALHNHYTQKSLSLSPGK
T5 sequence (chain, as listed by the source): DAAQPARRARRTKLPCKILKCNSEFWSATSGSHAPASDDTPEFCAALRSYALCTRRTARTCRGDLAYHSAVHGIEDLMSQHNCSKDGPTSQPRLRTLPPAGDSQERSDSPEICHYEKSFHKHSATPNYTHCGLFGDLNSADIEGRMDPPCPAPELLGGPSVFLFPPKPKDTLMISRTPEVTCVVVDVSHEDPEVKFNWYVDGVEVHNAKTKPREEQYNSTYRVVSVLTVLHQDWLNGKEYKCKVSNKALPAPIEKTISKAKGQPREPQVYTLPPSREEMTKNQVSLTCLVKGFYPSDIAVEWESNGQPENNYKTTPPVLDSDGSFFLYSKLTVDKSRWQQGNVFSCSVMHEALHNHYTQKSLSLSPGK

B1: rat anti-human RGM A monoclonal antibody 8D1 (antibody, V domains shown)
VH: EVQLQQSGPELVKPGTSVKMSCKTSGYTFTSYVMHWVKQKPGQGLEWIGYIIPYNDNTKYNEKFKGKATLTSDKSSSTAYMELSSLTSEDSAVYYCARRNEYYGSSFFDYWGQGTTLTVSS
VL: DIQMTQSPASLSASLEEIVTITCQASQDIDNYLAWYHQKPGKSPRLLIYGATNLADGVPSRFSGSRSGTQFSLKINRLQIEDLGIYYCLQGYIPPRTFGGGTKLELKR
notes: Rat hybridoma antibody; also called ML68-8D1; MAB 8D1
EC50 (read off the curve) [1]: ~0.2 µg/mL | binding result [2]: no binding | binding result [3]: binds | binding result (recombinant rat RGM A): no binding | binding result [4]: binds

B2: rat anti-human RGM A monoclonal antibody 5F9 (antibody, V domains shown)
VH: EVQLVESGGGLVQPGSSLKLSCVASGFTFSNYGMNWIRQAPKKGLEWIGMIYYDSSEKHYADSVKGRFTISRDNSKNTLYLEMNSLRSEDTAIYYCAKGTTPDYWGQGVMVTVSS
VL: DVVLTQTPVSLSVTLGDQASMSCRSSQSLEYSDGYTFLEWFLQKPGQSPQLLIYEVSNRFSGVPDRFIGSGSGTDFTLKISRVEPEDLGVYYCFQATHDPLTFGSGTKLEIKR
notes: Rat hybridoma antibody; also called ML69-5F9; MAB 5F9
EC50 (read off the curve) [1]: ~0.08 µg/mL

B3: chimeric 5F9 (antibody, V domains shown)
VH: B2 VH
VL: B2 VL
notes: also called chimeric human-rat 5F9; biotinylated chimeric 5F9
Kd [5]: 3.09 nM | koff [5]: 0.00236 s⁻¹ | kon [5]: 765000 M⁻¹ s⁻¹

B4: humanized antibody h5F9.23 (antibody, V domains shown)
VH: B2 VH with S16G, K19R, V23A, K42G, E82Q, S88A, I93V, V109T
VL: DVVLTQSPLSLPVTLGQPASISCRSSQSLEYSDGYTFLEWFQQRPGQSPRLLIYEVSNRFSGVPDRFSGSGSGTDFTLKISRVEAEDVGVYYCFQATHDPLTFGQGTKLEIKR
Kd [5]: 4.37 nM | koff [5]: 0.00221 s⁻¹ | kon [5]: 507000 M⁻¹ s⁻¹ | IC50 [6]: 0.55 µg/mL

B5: humanized antibody h5F9.24 (antibody, V domains shown)
VH: B2 VH with S16G, K19R, V23A, K42G, E82Q, S88A, I93V, V109T
VL: B4 VL with L51R
IC50 [6]: 1.32 µg/mL

B6: humanized antibody h5F9.25 (antibody, V domains shown)
VH: B2 VH with S16G, K19R, V23A, K42G, E82Q, S88A, I93V, V109T
VL: B4 VL with Q42L, R44K, R50Q
Kd [5]: 5.78 nM | koff [5]: 0.00329 s⁻¹ | kon [5]: 570000 M⁻¹ s⁻¹ | IC50 [6]: 0.66 µg/mL

B7: humanized antibody h5F9.21 (antibody, V domains shown)
VH: B2 VH with L11V, S16R, K19R, V23A, K42G, E82Q, S88A, I93V, V109T
VL: B4 VL with Q42L, R44K, R50Q
Kd [5]: 7.59 nM | koff [5]: 0.00269 s⁻¹ | kon [5]: 355000 M⁻¹ s⁻¹ | IC50 [6]: 0.6 µg/mL
